Laboratory results published in article PMC2789238.
Values belong to the substance of their own block, whether it stands above or below them.

What was measured:
[1] = target: ERK1, not dual-phosphorylated (inactive ERK dimer in U0126-inhibited embryos) (L. pictus (endogenous in eggs and embryos)); assay: native gel or EMSA; whole-cell extracts of eggs/embryos at times after fertilization (control, or U0126 15 min before fertilisation); non-denaturing gel to maintain ERK as a dimer; Western blot with anti-dual-phosphorylated ERK or anti-ERK antibodies
[2] = target: dual-phosphorylated ERK1 (fully activated ERK bis-phosphodimer) (L. pictus (endogenous in eggs and embryos)); assay: as above
[3] = target: cdk2 (cyclin-associated kinase activity in sea urchin cell extracts) (L. pictus (endogenous in eggs and embryos))

stoichiometry N [1]: 2
Substance: ERK1, not dual-phosphorylated (inactive ERK dimer in U0126-inhibited embryos) (enzyme)

stoichiometry N [2]: 2
Substance: dual-phosphorylated ERK1 (fully activated ERK bis-phosphodimer) (enzyme)

inhibition of Rb C-terminus phosphorylation in the 4 min whole-cell extract with a mixture of Rb and MBP as substrates, with and without p27^kip1 [3]: 97%
Substance: p27^kip1 recombinant protein (from UniProt P46414 1-197) (natural protein)
